Results from US20260109775A1 (Eli Lilly, published 2026).

What was measured:
[1] = target: Human CD137 expressed on stable human 293 cells (human, UniProt Q07011 24-255); experiment: cell-based or functional assay
[2] = target: T1, Cynomolgus monkey CD137 expressed on stable human 293 cells (cynomolgus monkey); experiment: flow cytometry on 293 cells expressing cynomolgus monkey CD137, antibody at 0.5 micrograms/mL, MFI against control IgG
T1 construct: whole, on cells; also called Cyno-CD137
Description: The ability of the antibodies disclosed herein to bind to cell surface cynomolgus monkey CD137 can be measured using a flow cytometric assay. Cynomolgus monkey CD137 expressing stable cells are generated by transfecting Cyno-CD137 receptor plasmid DNA into human 293 cells (ATCC) using Lipofectamine™ 2000 reagent (Invitrogen™) per manufacturer's protocol. Stable cells are selected using 0.5 micrograms/mL puromycin in Dulbecoo's Modified Eagle's Medium containing 10% fetal bovine serum and 1% GlutaMAX™. For flow cytometry, confluent adherent cells are detached using Gibco® Cell Dissociation Buffer (Life Technologies), blocked in FACS buffer (phosphate buffered saline containing 3% fetal bovine serum) for 1 h at 4° C., and then transferred into a 96-well round-bottom plate at a density of 1×10⁵ cells/well.
After washing in FACS buffer, secondary antibody R-phycoerythrin conjugated goat anti-human IgG, F(ab′)₂ fragment specific antibody (Jackson ImmunoResearch Laboratories) is added at a 1:200 dilution and cells are incubated at 4° C. for 30 minutes. Cells are washed and live/dead cell staining is performed using LIVE/DEAD® Fixable Far Red Dead Cell Stain kit (Life Technologies) per manufacturer's protocol. […] Flow cytometry data is analyzed using FlowJo® Software. Mean fluorescence intensity (MFI) ratio is calculated as the (MFI of Experimental antibody)/(MFI of the control IgG).

Human CD137 expressed on stable human 293 cells, sequence (Q07011 24-255): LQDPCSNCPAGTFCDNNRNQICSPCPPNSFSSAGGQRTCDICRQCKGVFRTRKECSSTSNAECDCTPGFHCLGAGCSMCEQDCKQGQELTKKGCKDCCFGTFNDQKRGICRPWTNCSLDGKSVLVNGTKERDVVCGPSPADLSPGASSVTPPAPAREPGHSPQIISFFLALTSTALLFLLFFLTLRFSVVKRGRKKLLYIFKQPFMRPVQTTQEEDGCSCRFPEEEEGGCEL

NF-kappaB luciferase reporter, max activity [1] [%] | MFI ratio [2] | Binder
63.4 | – | Antibody A1 (antibody, human IgG1, kappa) heavy: not shown light: AIRMTQSPPSLSASVGDRVTITCQASQDIGNSLGWYQQKPGKAPKLVIFDASDLETGVPSRFSGSGSGTDFSLTISSLQPEDFATYYCQQGNSFPLTFGQGTRLEIKRTVAAPSVFIFPPSDEQLKSGTASVVCLLNNFYPREAKVQWKVDNALQSGNSQESVTEQDSKDSTYSLSSTLTLSKADYEKHKVYACEVTHQGLSSPVTKSFNRGEC
115 | 0.94 | BMS20H4.9 (antibody, human IgG4 S228P, kappa, V domains shown, Comparator antibody, previously described in U.S. Pat. No. 7,288,638) VH: QVQLQQWGAGLLKPSETLSLTCAVYGGSFSGYYWSWIRQSPEKGLEWIGEINHGGYVTYNPSLESRVTISVDTSKNQFSLKLSSVTAADTAVYYCARDYGPGNYDWYFDLWGRGTLVTVSS VL: EIVLTQSPATLSLSPGERATLSCRASQSVSSYLAWYQQKPGQAPRLLIYDASNRATGIPARFSGSGSGTDFTLTISSLEPEDFAVYYCQQRSNWPPALTFGGGTKVEIKR
72.3 | – | Antibody A2 (antibody, human IgG1, kappa) heavy: not shown light: IRMTQSPPSLSASVGDRVTITCQASQDIGNSLGWYQQKPGKAPKLVIFDASDLETGVPSRFSGSGSGTDFSLTISSLQPEDFATYYCQQGNSFPLTFGQGTRLEIKRTVAAPSVFIFPPSDEQLKSGTASVVCLLNNFYPREAKVQWKVDNALQSGNSQESVTEQDSKDSTYSLSSTLTLSKADYEKHKVYACEVTHQGLSSPVTKSFNRGEC
